Assay results from US20260226142A1 (MAX PLANCK GESELLSCHAFT ZUR F RDERUNG DER WISSENSCHAFTEN E V, published 2026).
Where two headings read alike, the source gives them in different places.

Assays:
Cys-HLA [1] = target: T1, Cys-HLA (Staphylococcus aureus)
Cys-HLA [2] = target: T1, Cys-HLA; remark: listed apart in the source
Cys-HLA [3] = target: T1, Cys-HLA; remark: listed apart in the source
Cys-HLA [4] = target: T1, Cys-HLA; remark: listed apart in the source

B1: Bm28H01 (VHH)
VHH: QVQLVESGGGLVQPGGSLTLSCAASGFTLGDRTLGWFRQVAGKQREGVASIASGVLSAYIADSVKGRFTISRDDAKNTIYLHMNNLKPDDTGVYYCARGVDSWRWVPSTMDLWGKGILVTVSS
B1 gave a Kd (Cys-HLA [1]) of at most 0.01 nM.

B2: Ma7C11 (VHH)
VHH: QVQLVESGGGLVRAGGSLRLSCAASGSISSVNGMGWFRQAPGKERLFVAQVSLLDSSTYYADSVKGRFTISRDDAKNTMYLQMNNVRPEETAVYYCAATKLRIGTAFSSEYDYWGQGTQVTVSS
Binder B2 has a Kd (Cys-HLA [1]) of 0.3 nM.

B3: Ma7D06 (VHH)
VHH: QVQLVESGGGLVQAGGSLRLSCAASGSISGIDTMAWFRQIPGKDREFVAVIKWAAGSTWYPDFVKGRFTVSRDNAKNMVYLQMDSVKPEDTAIYYCAAAAGEKYYYRLFPYEYDYWGQGTQVTVSS
B3 was tested, and the Kd (Cys-HLA [1]) was 0.06 nM.

B4: Bm28C09 (VHH)
VHH: QVQLVESGGSVVQAGGSLRLSCTASGRNFNSYAMGWFRRPPGEQRDFIAAIIRSTGKTTYADSDSVKGRFTISKDSSGNTVYLQMNNLKPEDTAIYYCAGGDAGPYAFGYDYWGQGTQVTVSS
With B4 the Kd (Cys-HLA [1]) was at most 0.01 nM and the Kd (Cys-HLA [2]) was 0.015 nM.

B5: Ma7B01 (VHH)
VHH: QVQLVESGGGLVQAGDSLSLSCAASGRTFSNYAMGWFRQAPGKERHFVAVINQIGDSTWYPDFAKGRFTISRDNAKNTLYLQMNSLKPEDTAVYYCAATDPRSYWRIWPHEYGYWGQGTQVTVSS
Binder B5 has a Kd (Cys-HLA [1]) of 0.05 nM.

B6: Ma7E01 (VHH)
VHH: QVQLVESGGGSVQAGDSLSLSCVASERTFSNYAMGWFRQAPGKERHFVAVINPIGEETWYPDFAKGRFTISRDNAKNTLYLQMNSLKPEDTAVYYCAATDPRSYWRIWEHEFDYWGQGTQVTVSS
B6 showed a Kd (Cys-HLA [1]) of at most 0.01 nM.

B7: Bm28A12 (VHH)
VHH: QVQLVESGGGLVQAGGSLRLSCVVSGRALSSYNLAWFRQSPGKEREWIATIMPSADKAHYPDFLEGRFTISGDNTENTLYLQMNSLKPEDTAIYYCAAREPSYYHALFEYEYNLWGQGTQVTVSS
With B7 the Kd (Cys-HLA [1]) was at most 0.01 nM and the Kd (Cys-HLA [2]) was 0.13 nM.

B8: Ma8D07 (VHH)
VHH: QVQLVESGGGLVQPGGSLRLSCAASESIYKLNAMGWYRQAPGKELELVTTISSGGSTFYTDPVKGRFTISTDNAKNTVYLQMRSLKPEDTAMYYCAANPTYNHYSARGQGTQVTVSS
Work on B8 yielded a Kd (Cys-HLA [1]) of 0.8 nM.

B9: Ma8D08 (VHH)
VHH: QVQLVESGGGFVQAGGSLRLSCAASESIYKLNAMGWYRQAPGKELELVTTISSGGSTFYTDPVKGRFTISTDNAKNTVYLQMRSLKPEDTAMYYCAANPTYNHYSARGQGTQVTVSS
Binder B9 has a Kd (Cys-HLA [1]) of 1 nM.

B10: Bm28F09 (VHH)
VHH: QVQLVESGGGLVEPGGSLTLSCAASGFTSKNYYIGWFRQAPGKYREGVASIGASDGSLYIADSVKGRFTISSDNAKNTVYLHPRNLKPEDSGVYYCATGRDSWRWVPSAMDYWGKGIQVTVSS
Work on B10 yielded a Kd (Cys-HLA [1]) of 0.15 nM.

B11: Ma8H03 (VHH)
VHH: QVQLVESGGGLVHPGGSLRLSCAASGSSLDHYVIGWFRQVPGKQREGISCISSGGSTNYADSVKGRFTVSRDNVKSTVYLQMNSLAPDDSAEYYCAAQRNLGNFCVLGWLEYDDWGQGTQVTVSS
In the case of B11, the Kd (Cys-HLA [3]) is reported as at most 0.001 nM and the Kd (Cys-HLA [1]) is reported as at most 0.01 nM.

B12: Ma7A07 (VHH)
VHH: QVQLVESGGGLVQPGGSLRLSCAASGFTLGDYTLGWFRQAPGKQREGVSSIASSALSIYIADSVKGRFTISRDDAKNTIYLHMNNLKPEDTGVYYCARGVDSWRWVPSAMDLWGKGTLVTVSS
B12 gave a Kd (Cys-HLA [3]) of 0.006 nM and a Kd (Cys-HLA [1]) of at most 0.01 nM.

B13: Ma7B12 (VHH)
VHH: QVQLVESGGGLVQPGGSLRLSCAASGFTLGDYTLGWFRQAPGKQREGVSSIASSALSIYIADSVKGRFTISRDNAKNTVYLHMNNLKPEDTGVYYCARGIDNWRWVPSAMDLWGKGTQVTVSS
For B13, the Kd (Cys-HLA [1]) was at most 0.01 nM.

B14: Ma7B03 (VHH)
VHH: QVQLVESGGGLVQPGGSLRLSCAASGFTLSNYYVGWFRQAPGKQREGVSSIGSSDLSIYIADSVKGRFTISRDNAKNTIYLHMNNLKPDDTGVYYCARGTDSWRWVPSAMDLWGKGTQVTVSS
B14 gave a Kd (Cys-HLA [1]) of at most 0.01 nM.

B15: Ma7A08 (VHH)
VHH: QVQLVESGGGLVQPGGSLTLSCAASGFTLGDYTLGWFRQAPGKQREGVSSIASSVLSVYIADSVKGRFTISRDDAKNTIYLHMNNLKPEDTGVYYCARGVDSWRWVPSAMDLWGKGTLVTVSS
With B15 the Kd (Cys-HLA [1]) was at most 0.01 nM.

B16: Ma7F02 (VHH)
VHH: QVQLVESGGGLVQAGGSLRLSCTVSGSIDSLHTMGWFRQAPGKKRDFVAVVSWSGGNTYYPDYAKGRFTISRDNTKNTVYLQMNSLKPEDTAIYYCAAESGSGNYWKIWEHEFDSWGQGTQVTVSS
B16 gave a Kd (Cys-HLA [4]) of about 0.05 nM and a Kd (Cys-HLA [1]) of 0.04 nM.

B17: Ma8E03 (VHH)
VHH: QVQLVESGGGLVHPGGSLRLSCAASGSSLDHYVIGWFRQVPGKEREGVSCISRSGGSTNYADSVKGRFTVSRDNVKNMVYLQMNSLEPEDSAEYYCAAQRNLGNFCVLGWLEYDDWGQGTQVTVSS
In the case of B17, the Kd (Cys-HLA [1]) is reported as at most 0.01 nM.

B18: Ma8G02 (VHH)
VHH: QVQLVESGGGLVLPGGSLRLSCAASGSSLDHYVIGWFRQYPGKEREGVSCISRSGGSTNYADSVKGRFTVSRDNVKNMVYLQMNSLEPEDSAEYYCAAQRNLGNFCVLGWVEYDDWGQGTQVTVSS
For B18, the Kd (Cys-HLA [1]) was at most 0.01 nM.

B19: Ma8A05 (VHH)
VHH: QVQLVESGGGLVQPGGSLRLSCAASPASGFTLDLYTIAWFLQAPGKEREGVSAISLSDEITYYSDAVKGRFTISRDSAKNTVFLQMDRLKPEDTGVYYCAIGAFDFILKEADADYWGQGTQVTVSS
Work on B19 yielded a Kd (Cys-HLA [1]) of 0.6 nM.

B20: Ma31A12 (VHH)
VHH: QVQLVESGGGLVQPGGSLRLSCAASAASGFTLDLYTIAWFLQAPGKEREGVSAISLSDEITYYSDAVKGRFTISRDSAKNTVFLQMDRLKPEDTGVYYCAIGAFDFILKEVDADYWGQGTQVTVSS
In the case of B20, the Kd (Cys-HLA [1]) is reported as 0.065 nM.

B21: Ma8D05 (VHH)
VHH: QVQLVESGGGLVQPGGSLRLSCAASPASGFTLDLYTIAWFLQAPGKEREGVSAISLSDEITYYSDTVKGRFTISRDSAKNTVFLQMDRLKPEDTGVYYCAIGAFDFILKEADADYWGQGTQVTVSS
B21 showed a Kd (Cys-HLA [1]) of 1 nM.

B22: Ma31B06 (VHH)
VHH: QVQLVQSGGGLVQPGGTLRLSCAASPASGFTLDLYTIAWFLQAPGKEREGVSAISLSDEITYYSDAVKGRFTISRDSAKNTVFLQMDRLKPEDTGVYYCAIGAFDFILKEADADYWGQGTQVTVSS
Work on B22 yielded a Kd (Cys-HLA [1]) of 0.075 nM.

B23: Ma7C02 (VHH)
VHH: QVQLVESGGGLVQAGGSLRLSCAASGRTFSDYAMGWFRQAAGKDRDFVAVITRSGDSTYYPDSTKGRFTISRDNAKNTMYLQMNSLKPEDTARYYCAATDPTNYWRIWEHEFDYWGQGTQVTVSS
B23 showed a Kd (Cys-HLA [1]) of 0.09 nM.

B24: Bm28C04 (VHH)
VHH: QVQLVESGGGSVQPGNSLRLSCKVSGRTFNSYALGWFRRRPGDQRDFVASIIRSTGGTSYADSVKGRFTISYDNVQNTVDLQMNSLEPEDTAIYYCAGGDGHIYAFGYDYWGQGTQVTVSS
B24 showed a Kd (Cys-HLA [4]) of about 0.05 nM, a Kd (Cys-HLA [1]) of at most 0.01 nM and a Kd (Cys-HLA [2]) of 0.04 nM.

B25: Bm28H07 (VHH)
VHH: QVQLVESGGGSVQPGNSLRLSCKVSGRTFNSYALGWFRRRPGDQRDFVASIIRSTGGTSYADSVKGRFTISYDNVQNTVDLQMSSLEPEDTAIYYCAGGDGHIYAFGYDYWGQGTQVTVSS
Binder B25 has a Kd (Cys-HLA [1]) of at most 0.01 nM.
